{"source": "paper PMC4502523", "key": {"CC(N)Cc1ccc(Cl)cc1": {"tested_on": "CC(N)Cc1ccc(Cl)cc1", "test": "cells, lysate or membranes"}, "CSc1ccc(CC(C)N)cc1": {"tested_on": "CSc1ccc(CC(C)N)cc1", "test": "cells, lysate or membranes"}}}
{"substance": "human SERT (hSERT) (Homo sapiens)", "values": [{"measurement": "Km", "setting": "CC(N)Cc1ccc(Cl)cc1", "result": "3.3 ± 0.9", "unit": "µM"}, {"measurement": "Km", "setting": "CSc1ccc(CC(C)N)cc1", "result": "6.1 ± 2.3", "unit": "µM"}]}
